Source: patent US20100062001A1 (TECHNION RESEARCH AND DEVELOPMENT, published 2010)

Biological target: HLA-A2-G9-209 complex (as used for the affinity of 9H) (human, UniProt P61769 21-119; P40967 209-217)
Assay: method not stated (data not shown)

B1: 9H scFv antibody (scFv)
scFv: EVQLLESGGGLVQPGGSLRLSCAASGFTFQYYAMSWVRQAPGKGLEWVSSINWNSGTLDYADSVKGRFTISRDNSKNTLYLQMNSLRAEDTAVYYCARYSNYGLYAMDVWGQGTLVTVSSSGGGGSGGGGSGGGGSSDIVLTQPPSASGTPGQRVTISCSGSSSNIGSNPVTWYQQLPGTAPKPLIYGDSYRPSGVPDRFSGSKSGTSASLAISGLRSEDEADYYCATWDDDVNGVIFGGGTQLTVLR
notes: also called scFv 9H; clone 9H
- Kd: 500 pM
